Assay results taken from patent publication US20210145976A1 (ARO BIOTHERAPEUTICS, published 2021).
Substitutions are numbered along the chain they refer to. Read-outs that look alike come from different tables or passages of the source. Each block holds one binder with its values, some of them ahead of it.

Columns and labels:
[1] = biological target: T1, recombinant biotinylated CD71 extracellular domain (Sino Biologics) with an N-terminal 6His tag (human, UniProt P02786 89-760, biotinylated (sites not given)); test: screening ELISA
T1 construct: extracellular domain; also called hCD71; huCD71
T1 sequence (P02786 other isoform, or with tags, fused parts or gaps): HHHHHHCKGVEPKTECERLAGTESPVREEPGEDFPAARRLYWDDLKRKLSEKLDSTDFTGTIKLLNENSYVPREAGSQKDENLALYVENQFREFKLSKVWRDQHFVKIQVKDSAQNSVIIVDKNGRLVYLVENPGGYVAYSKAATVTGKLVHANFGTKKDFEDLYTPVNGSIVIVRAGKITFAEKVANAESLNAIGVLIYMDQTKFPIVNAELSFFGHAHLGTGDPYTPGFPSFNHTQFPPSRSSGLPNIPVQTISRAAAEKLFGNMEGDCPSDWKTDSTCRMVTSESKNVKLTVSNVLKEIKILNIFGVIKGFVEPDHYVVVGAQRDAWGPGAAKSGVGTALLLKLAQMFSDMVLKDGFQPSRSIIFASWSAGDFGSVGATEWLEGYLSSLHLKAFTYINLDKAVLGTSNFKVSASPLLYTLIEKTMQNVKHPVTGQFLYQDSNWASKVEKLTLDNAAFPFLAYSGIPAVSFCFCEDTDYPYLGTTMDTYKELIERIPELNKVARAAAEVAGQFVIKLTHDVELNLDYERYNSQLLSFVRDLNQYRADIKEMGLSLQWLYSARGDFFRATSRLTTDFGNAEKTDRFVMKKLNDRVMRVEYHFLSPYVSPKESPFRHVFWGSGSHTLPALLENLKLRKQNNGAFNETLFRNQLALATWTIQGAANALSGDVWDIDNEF
Experimental: (§1) To screen for FN3 domains that specifically bind CD71, streptavidin-coated Maxisorp plates (Nunc catalog 436110) were blocked for 1 hour in Starting Block T20 (Pierce) and then coated with biotinylated CD71 (using same antigen as in panning) or negative controls (an unrelated Fc-fused recombinant protein and human serum albumin) for 1 hour. Plates were rinsed with TBST and diluted lysate was applied to plates for 1 hour. Following additional rinses, wells were treated with HRP-conjugated anti-V5 tag antibody (Abcam, ab1325), for 1 hour and then assayed with POD (Roche, 11582950001).

[2] = biological target: T1, recombinant biotinylated CD71 …; test: screening ELISA, ratio
Experimental: as §1

[3] = biological target: T2, CD71 on SK-BR-3 cells (human, UniProt P02786 1-760); test: cell-based or functional assay
T2 sequence (P02786 whole entry): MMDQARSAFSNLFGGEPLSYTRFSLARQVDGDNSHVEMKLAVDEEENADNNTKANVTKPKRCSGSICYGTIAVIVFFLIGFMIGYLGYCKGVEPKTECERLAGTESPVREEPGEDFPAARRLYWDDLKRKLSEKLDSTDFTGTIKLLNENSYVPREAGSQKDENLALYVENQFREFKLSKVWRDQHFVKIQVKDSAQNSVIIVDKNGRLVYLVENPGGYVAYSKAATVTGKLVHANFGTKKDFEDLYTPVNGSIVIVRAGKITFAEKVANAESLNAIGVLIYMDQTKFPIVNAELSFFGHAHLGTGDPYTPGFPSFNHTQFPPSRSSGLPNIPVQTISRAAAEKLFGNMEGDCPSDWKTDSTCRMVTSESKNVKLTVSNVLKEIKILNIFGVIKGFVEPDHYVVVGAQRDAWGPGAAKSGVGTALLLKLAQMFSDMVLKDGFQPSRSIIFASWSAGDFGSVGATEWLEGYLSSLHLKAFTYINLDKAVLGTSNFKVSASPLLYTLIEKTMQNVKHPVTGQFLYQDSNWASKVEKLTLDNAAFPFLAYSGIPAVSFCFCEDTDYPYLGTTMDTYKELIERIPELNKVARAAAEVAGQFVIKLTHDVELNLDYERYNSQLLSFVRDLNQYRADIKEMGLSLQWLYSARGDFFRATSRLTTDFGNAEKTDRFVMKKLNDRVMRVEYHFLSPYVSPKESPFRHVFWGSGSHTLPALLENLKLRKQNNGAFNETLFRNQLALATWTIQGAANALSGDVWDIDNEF

[4] = biological target: T2, CD71 on SK-BR-3 cells; test: cell-based or functional assay; remark: listed apart in the source
[5] = biological target: T1, recombinant biotinylated CD71 …; test: screening ELISA; remark: listed apart in the source
[6] = biological target: T1, recombinant biotinylated CD71 …; test: screening ELISA, ratio; remark: listed apart in the source
[7] = biological target: T2, CD71 on SK-BR-3 cells; test: cell-based or functional assay; remark: listed apart in the source

hCD71 [1]: 4.9e+06 | huCD71/Fc [2]: 461
B1: SEQ ID NO 61 (designed binder)
chain: MLPAPKNLVVSRVTEDSARLSWRVESRTFDSFLIQYQESEKVGEAIVLTVPGSERSYDLTGLKPGTEYTVSIYGVVWDTRDNPISNPLSAIFTT
notes: FN3 domain
IC50, SKBR-3 cell viability, MMAF conjugate [3]: 1.93 nM

hCD71 [1]: 3.3e+06 | huCD71/Fc [2]: 535
B2: SEQ ID NO 36 (designed binder)
chain: MLPAPKNLVVSRVTEDSARLSWTAPDAAFDSFTITYIEWWENGEAIALSVPGSERSYDLTGLKPGTEYQVGIAGVKGGYKSYPLWALFTT
notes: FN3 domain
IC50, SKBR-3 cell viability, MMAF conjugate [3]: 7.1 nM

B3: SEQ ID NO 62 (designed binder)
chain: MLPAPKNLVVSRVTEDSARLSWTAPDAAFDSFPILYLELNHHGEEIVLTVPGSERSYDLTGLKPGTEYWVYIFGVKGGMYSAPLSAIFTTGG
modifications: VC-MMAF conjugate (site not given)
IC50, SK-BR3 viability, MMAF conjugate, no competitor [4]: > 0.005 nM | IC50, SK-BR3 viability, MMAF conjugate, with 0.6 uM holo-human transferrin [4]: 0.6 nM

hCD71 [1]: 507000 | huCD71/Fc [2]: 122
B4: SEQ ID NO 39 (designed binder)
chain: MLPAPKNLVVSRVTEDSARLSWTAPDAAFDSFDIDYREWWTLGEAIVLTVPGSERSYDLTGLKPGTEYYVNIQGVKGGLRSYPLSAIFTT
notes: FN3 domain
IC50, SKBR-3 cell viability, MMAF conjugate [3]: 0.52 nM | IC50, SK-BR3 viability, MMAF conjugate, no competitor [4]: 1.2 nM | IC50, SK-BR3 viability, MMAF conjugate, with 0.6 uM holo-human transferrin [4]: 31.1 nM

hCD71 [1]: 113000 | huCD71/Fc [2]: 37
B5: SEQ ID NO 46 (designed binder)
chain: MLPAPKNLVVSRVTEDSARLSWTAPDAAFDSFTIEYFEFTGTGEAIVLTVPGSERSYDLTGLKPGTEYYVSIYGVKGGLLSAPLSAIFTT
notes: FN3 domain
IC50, SKBR-3 cell viability, MMAF conjugate [3]: 2.69 nM | IC50, SK-BR3 viability, MMAF conjugate, no competitor [4]: 3 nM | IC50, SK-BR3 viability, MMAF conjugate, with 0.6 uM holo-human transferrin [4]: ~100 nM

hCD71 [1]: 9.71e+06 | huCD71/Fc [2]: 2290
B6: SEQ ID NO 51 (designed binder)
chain: MLPAPKNLVVSRVTEDSARLSWTAPDAAFDSFFIKYIEWWADGEAIVLTVPGSERSYDLTGLKPGTEYLVEIYGVKGGKWSWPLSAIFTT
notes: FN3 domain
IC50, SKBR-3 cell viability, MMAF conjugate [3]: 4.9 nM

hCD71 [1]: 1.95e+06 | huCD71/Fc [2]: 608
B7: SEQ ID NO 59 (designed binder)
chain: B6 chain with F33T, K35W, I37A, W40E, A41D, D42E, L69R, K79Y, W80P, W82K
notes: FN3 domain
IC50, SKBR-3 cell viability, MMAF conjugate [3]: 4 nM

hCD71 [1]: 220000 | huCD71/Fc [2]: 74.4
B8: SEQ ID NO 40 (designed binder)
chain: B5 chain with T33V, F37W, F39Y, T40V, T42H, Y69S, S71G, L79S, A82R
notes: FN3 domain
IC50, SKBR-3 cell viability, MMAF conjugate [3]: 3 nM | IC50, SK-BR3 viability, MMAF conjugate, no competitor [4]: 2.2 nM | IC50, SK-BR3 viability, MMAF conjugate, with 0.6 uM holo-human transferrin [4]: ~100 nM

hCD71 [1]: 943000 | huCD71/Fc [2]: 337
B9: SEQ ID NO 48 (designed binder)
chain: B5 chain with T33V, F39Q, T40F, G41N, T42L, Y69W, S71G, L79W, A82H
notes: FN3 domain
IC50, SKBR-3 cell viability, MMAF conjugate [3]: 0.42 nM | IC50, SK-BR3 viability, MMAF conjugate, no competitor [4]: 1.3 nM | IC50, SK-BR3 viability, MMAF conjugate, with 0.6 uM holo-human transferrin [4]: ~70 nM

hCD71 [1]: 1.01e+07 | huCD71/Fc [2]: 5750
B10: SEQ ID NO 52 (designed binder)
chain: B4 chain with D33K, D35S, R37Q, T41E, L42D, Y69W, Q73S, L79V, R80Q
notes: FN3 domain
IC50, SKBR-3 cell viability, MMAF conjugate [3]: 6.3 nM

hCD71 [1]: 265000 | huCD71/Fc [2]: 50.9
B11: SEQ ID NO 47 (designed binder)
chain: B6 chain with F33T, K35W, I37A, W39A, W40L, A41G, L69F, E71D, K79F, W82L
notes: FN3 domain
IC50, SKBR-3 cell viability, MMAF conjugate [3]: 5.9 nM | IC50, SK-BR3 viability, MMAF conjugate, no competitor [4]: 1.6 nM | IC50, SK-BR3 viability, MMAF conjugate, with 0.6 uM holo-human transferrin [4]: ~85 nM

hCD71 [1]: 302000 | huCD71/Fc [2]: 62.9
B12: SEQ ID NO 58 (designed binder)
chain: B5 chain with E35W, F37A, F39A, T40D, T42W, Y69F, S71D, L79Y, A82V
notes: FN3 domain
IC50, SKBR-3 cell viability, MMAF conjugate [3]: 7.7 nM

hCD71 [1]: 4.27e+06 | huCD71/Fc [2]: 423
B13: SEQ ID NO 41 (designed binder)
chain: MLPAPKNLVISRVTEDSARLSWTAPDAAFDSFFIYYIESYPAGEAIVLTVPGSERSYDLTGLKPGTEYWVGIDGVKGGRWSTPLSAIFTT
notes: FN3 domain
IC50, SKBR-3 cell viability, MMAF conjugate [3]: 4.7 nM | IC50, SK-BR3 viability, MMAF conjugate, no competitor [4]: 0.01 nM | IC50, SK-BR3 viability, MMAF conjugate, with 0.6 uM holo-human transferrin [4]: 0.5 nM

hCD71 [1]: 1.62e+06 | huCD71/Fc [2]: 199
B14: SEQ ID NO 43 (designed binder)
chain: B13 chain with I10V, F33Y, Y35E, I37Y, A42G, W69D, G71Y, D73Y, R79Y, T82R
notes: FN3 domain
IC50, SKBR-3 cell viability, MMAF conjugate [3]: 0.069 nM | IC50, SK-BR3 viability, MMAF conjugate, no competitor [4]: 0.97 nM | IC50, SK-BR3 viability, MMAF conjugate, with 0.6 uM holo-human transferrin [4]: ~80 nM

hCD71 [1]: 2.83e+06 | huCD71/Fc [2]: 478
B15: SEQ ID NO 42 (designed binder)
chain: B5 chain with F37Y, F39S, T40F, G41Y, T42G, L79W, A82R
notes: FN3 domain
IC50, SKBR-3 cell viability, MMAF conjugate [3]: 0.19 nM | IC50, SK-BR3 viability, MMAF conjugate, no competitor [4]: 2.4 nM | IC50, SK-BR3 viability, MMAF conjugate, with 0.6 uM holo-human transferrin [4]: ~70 nM

hCD71 [1]: 1.93e+06 | huCD71/Fc [2]: 669
B16: SEQ ID NO 45 (designed binder)
chain: B13 chain with I10V, F33A, I37L, A42E, R79T, T82S
notes: FN3 domain
IC50, SKBR-3 cell viability, MMAF conjugate [3]: 8.3 nM | IC50, SK-BR3 viability, MMAF conjugate, no competitor [4]: 0.05 nM | IC50, SK-BR3 viability, MMAF conjugate, with 0.6 uM holo-human transferrin [4]: 0.9 nM

hCD71 [1]: 1.09e+07 | huCD71/Fc [2]: 948
B17: SEQ ID NO 49 (designed binder)
chain: B4 chain with D33G, D35S, R37L, T41E, L42D, Y69W, N71S, Q73A, L79K
notes: FN3 domain
IC50, SKBR-3 cell viability, MMAF conjugate [3]: 3 nM

hCD71 [1]: 176000 | huCD71/Fc [2]: 44.8
B18: SEQ ID NO 44 (designed binder)
chain: MLPAPKNLVVSRVTEDSARLSWTAPDAAFDSFYIEYYESLPDGEAIVLTVPGSERSYDLTGLKPGTEYAVYIYGVKGGYYSRPLSAIFTT
notes: FN3 domain
IC50, SKBR-3 cell viability, MMAF conjugate [3]: 2.5 nM

hCD71 [1]: 1.08e+07 | huCD71/Fc [2]: 4490
B19: SEQ ID NO 50 (designed binder)
chain: MLPAPKNLVVSRVTEDSARLSWTAPDAAFDSFVIEYREGAWYGEAIVLTVPGSERSYDLTGLKPGTEYFVDITGVKGGWWSDPLSAIFTT
notes: FN3 domain
IC50, SKBR-3 cell viability, MMAF conjugate [3]: 3.1 nM

hCD71 [1]: 518000 | huCD71/Fc [2]: 46.6
B20: SEQ ID NO 33 (designed binder)
chain: MLPAPKNLVVSRVTEDSARLSWTAPDAAFDSFTIQYEELTTVGEAIYLRVPGSERSYDLTGLKPGTEYVVWIEGVKGGLRSNPLGAAFTT
notes: FN3 domain
IC50, SKBR-3 cell viability, MMAF conjugate [3]: 3.27 nM | IC50, SK-BR3 viability, MMAF conjugate, no competitor [4]: 4.4 nM | IC50, SK-BR3 viability, MMAF conjugate, with 0.6 uM holo-human transferrin [4]: ~200 nM

hCD71 [5]: 4.33e+06 | hCD71:HSA [6]: 1520
B21: SEQ ID NO 226 (designed binder)
chain: MLPAPKNLVVSRVTEDSARLSWTAPDAAFDSFHIIYEEVLTEGEAIYLRVPGSERSYDLTGLKPGTEYGVTIKGVKGGAYSIPLIATFTT
notes: FN3 domain
IC50, SKBR-3 viability, MMAF conjugate, second unlabelled column (+/- human transferrin) [7]: 8.32 nM
